Source: US20210101977A1

Legend:
[1] = biological target: full-length isoform 2 of human CD96 (SEQ ID NO: 128) expressed on cells (human) (UniProt P40200); assay: flow cytometry (MFI against concentration), Jurkat cells expressing human CD96 isoform 2
[2] = biological target: isoform 2 of cynomolgus monkey CD96 (SEQ ID NO: 133) expressed on CHO cells (cynomolgus monkey); assay: flow cytometry (MFI against concentration), CHO cells expressing cynomolgus CD96 isoform 2
[3] = biological target: cynomolgus monkey CD96 on activated primary cynomolgus T cells (cynomolgus monkey); assay: flow cytometry (MFI against concentration), activated primary cynomolgus T cells
[4] = biological target: full-length isoform 1 of human CD96 (SEQ ID NO: 127) expressed on CHO cells (human) (UniProt P40200); assay: flow cytometry (MFI against concentration), CHO cells expressing human CD96 isoform 1
[5] = biological target: full-length isoform 2 of human CD96 (SEQ ID NO: 128) expressed on cells (human) (UniProt P40200); assay: flow cytometry (MFI against concentration), CHO cells expressing human CD96 isoform 2

Area under the curve (AUC) [1]: 4760
Area under the curve (AUC) [2]: 6030
Area under the curve (AUC) [3]: 1270
Area under the curve (AUC) [4]: 43500
Area under the curve (AUC) [5]: 5810
Substance: IgG1 isotype control antibody
